# Measured values from publication PMC4743672.
# Target: HLCS-NLuc (Myc-HLCS fused to the N-terminal fragment of firefly luciferase) (human) (UniProt P50747)
# Test: split reporter
# UniProt P50747, sequence (P50747 whole entry, the tested form may be a part): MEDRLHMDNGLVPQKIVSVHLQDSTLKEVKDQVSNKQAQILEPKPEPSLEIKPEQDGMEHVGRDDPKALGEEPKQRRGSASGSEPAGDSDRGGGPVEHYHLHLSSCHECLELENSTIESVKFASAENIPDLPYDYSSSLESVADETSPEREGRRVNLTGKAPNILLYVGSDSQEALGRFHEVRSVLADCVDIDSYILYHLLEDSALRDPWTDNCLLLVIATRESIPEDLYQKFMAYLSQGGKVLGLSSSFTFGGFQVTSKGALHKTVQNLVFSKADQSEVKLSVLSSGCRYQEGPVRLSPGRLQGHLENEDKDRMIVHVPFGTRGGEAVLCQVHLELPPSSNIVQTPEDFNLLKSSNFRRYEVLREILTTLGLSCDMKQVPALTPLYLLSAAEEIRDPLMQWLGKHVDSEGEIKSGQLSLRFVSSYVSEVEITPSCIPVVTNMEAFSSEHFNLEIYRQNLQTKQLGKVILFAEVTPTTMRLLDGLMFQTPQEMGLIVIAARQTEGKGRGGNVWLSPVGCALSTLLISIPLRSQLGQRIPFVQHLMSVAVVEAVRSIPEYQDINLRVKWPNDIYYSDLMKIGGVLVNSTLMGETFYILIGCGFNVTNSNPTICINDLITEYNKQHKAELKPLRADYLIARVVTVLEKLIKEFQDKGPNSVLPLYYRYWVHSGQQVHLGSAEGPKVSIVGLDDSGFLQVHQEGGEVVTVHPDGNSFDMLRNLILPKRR
Substance,"luminescence signal, fold of TP53-NLuc plus CDK3-CLuc (negative control) [fold]","luminescence signal, fold of unfused NLuc plus CLuc (background control) [fold]"
HDAC1Δ31-CLuc (Myc-HDAC1Δ31 fused to the C-terminal fragment of firefly luciferase) (enzyme),2.4,2.9
N-CoR-CT-CLuc (Myc-N-CoR C-terminal domain fused to the C-terminal fragment of firefly luciferase) (domain or fragment),3.1,3.7
